Data on two molecules can be found in publication PMC4819448, “Co-operative and Hierarchical Binding of c-FLIP and Caspase-8: A Unified Model Defines How c-FLIP Isoforms Differentially Control Cell Fate” (Molecular Cell, 2016).

Assay [1] has as its target endogenous caspase-8 (human (endogenous in BJAB and HaCaT)) (UniProt Q14790). Description: affinity purification with mass spectrometry; native TRAIL DISC from c-FLIPS overexpressing BJAB cells; label-free absolute quantification (TOP 3) by LC-MS/MS, n = 3.
For assay [2] the target is unchanged. Description: affinity purification with mass spectrometry; native CD95 DISC from c-FLIPS overexpressing HaCaT cells; label-free absolute quantification (TOP 3) by LC-MS/MS, n = 3.
In assay [3] the target is T1, endogenous FADD (human (endogenous in Jurkat, BJAB and …, UniProt Q13158 1-208)).
T1 construct: FADD, endogenous; source: endogenous, lysates of caspase-8 null Jurkat, BJAB and HaCaT cells
T1 sequence (looked up): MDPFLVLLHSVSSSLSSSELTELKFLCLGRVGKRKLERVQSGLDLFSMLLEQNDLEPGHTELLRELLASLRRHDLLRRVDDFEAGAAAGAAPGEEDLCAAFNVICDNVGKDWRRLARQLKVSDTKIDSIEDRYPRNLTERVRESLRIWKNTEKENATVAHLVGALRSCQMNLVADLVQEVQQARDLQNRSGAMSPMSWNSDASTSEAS
Description: affinity purification with mass spectrometry; native TRAIL DISC from c-FLIPS overexpressing BJAB cells; label-free absolute quantification (TOP 3) by LC-MS/MS, n = 3. Particulars: partners not purified.

In assay [4] the target is T1, endogenous FADD. Description: affinity purification with mass spectrometry; native TRAIL DISC from control (vector) BJAB cells; label-free absolute quantification (TOP 3) by LC-MS/MS, n = 3. As to conditions: partners not purified.

The stoichiometry N is a count of units in the complex or per binding partner. Consider “c-FLIPS stably overexpressed in BJAB or HaCaT cells (natural protein)”, for which the stoichiometry N in assay [1] and in assay [2] was 1 each time.

B1: endogenous caspase-8 (natural protein, human (endogenous in BJAB and HaCaT), UniProt Q14790 1-479, looked up)
chain: MDFSRNLYDIGEQLDSEDLASLKFLSLDYIPQRKQEPIKDALMLFQRLQEKRMLEESNLSFLKELLFRINRLDLLITYLNTRKEEMERELQTPGRAQISAYRVMLYQISEEVSRSELRSFKFLLQEEISKCKLDDDMNLLDIFIEMEKRVILGEGKLDILKRVCAQINKSLLKIINDYEEFSKERSSSLEGSPDEFSNGEELCGVMTISDSPREQDSESQTLDKVYQMKSKPRGYCLIINNHNFAKAREKVPKLHSIRDRNGTHLDAGALTTTFEELHFEIKPHDDCTVEQIYEILKIYQLMDHSNMDCFICCILSHGDKGIIYGTDGQEAPIYELTSQFTGLKCPSLAGKPKVFFIQACQGDNYQKGIPVETDSEEQPYLEMDLSSPQTRYIPDEADFLLGMATVNNCVSYRNPAEGTWYIQSLCQSLRERCPRGDDILTILTEVNYEVSNKDDKKNMGKQMPQPTFTLRKKLVFPSD
notes: caspase-8, endogenous; procaspase-8 and p43/41 cleavage fragments detected; also called procaspase-8; p43/41 cleavage fragments; source: endogenous, BJAB and HaCaT lysates
On to B1, for which the “stoichiometry N” value in assay [3] was roughly 1; in assay [4], roughly 6 fold.
